These results are taken from paper PMC3827151, “Methionine Mutations of Outer Membrane Protein X Influence Structural Stability and Beta-Barrel Unfolding” (PLoS ONE, 2013).

The data set deals with the molecule itself. Description: SDS-PAGE of unboiled samples (gel mobility shift); protein in 8 M urea diluted 20-fold into LDAO, DPC, 60PC or DMPC in 20 mM Tris-HCl pH 9.5, slow folding at 40°C for 3 h; samples not centrifuged; bands of folded and unfolded monomer and dimer.

B1: Outer membrane protein X H100N (OmpX^HN) (natural protein, E. coli, UniProt P0A917 24-171, looked up)
chain: ATSTVTGGYAQSDAQGQMNKMGGFNLKYRYEEDNSPLGVIGSFTYTEKSRTASSGDYNKNQYYGITAGPAYRINDWASIYGVVGVGYGKFQTTEYPTYKNDTSDYGFSYGAGLQFNPMENVALDFSYEQSRIRSVDVGTWIAGVGYRF
notes: also called OmpX H100N
Turning to B1, the binding result is on record as “binds”.

B2: Outer membrane protein X H100N:M18L:M21L:M118L quadruple mutant (OmpX^M) (natural protein, E. coli, UniProt P0A917 24-171, looked up)
chain: ATSTVTGGYAQSDAQGQLNKLGGFNLKYRYEEDNSPLGVIGSFTYTEKSRTASSGDYNKNQYYGITAGPAYRINDWASIYGVVGVGYGKFQTTEYPTYKNDTSDYGFSYGAGLQFNPLENVALDFSYEQSRIRSVDVGTWIAGVGYRF
notes: the 'initiator' Met is kept; PDB 1QJ8 is the parent OmpX^HN; also called Met-less construct
For the protein B2, the binding result is given as “binds”.
